17 sequences from the DeepSol protein solubility set can be followed below.

This data set can be described thus: soluble on expression in E. coli; label from the status in PepcDB or PDB records.
Turning to “MSKKKVQNTNKKMKECWLTPIPQNVETVNMTVSFKIDEKDVGKPANEVIRINENSMVSFLSTNSFYNGLILSDKIVKVNGASGNISKYQTELMKGETCSVEVTRRKNIIPATRERLKKSGCVLRRDNTCFVIEVEKTSAMKSATVGVTVTYIQKRGIVTRIEPSSLASIFFGRGDLIMDINEESILNAEKNDDFIREKLSGILKGEKVTFLVERPVSVESANTLRHLIESVAPDPDVKMANDAICIGRNASNMHYNVLKKLQPKSILSRDVFKGKNPREKKPGKKLSKEKDNTIKISTATSTANISTDVAEDEIDNLKNVVTKSHAVRSGDEEEERGAFDDE”, the “soluble on expression in E. coli” value is listed as “not soluble”.

For “MGSDKIHHHHHHAHELEANEKYPGKSVKAQTRKEIVTFFSESLSGKTTTFDAGKPLKLSEVEHYRDVVWQLWKEANDGFKEEKLIALDTLSSASTGYWKLPDSLEPNAVMPYYWGMKGTDEIGNELPLFLYLHGSGPKEREWSTGLNICRNFDDAPSVYFIPQIPNEGEYYRWWQKAKQFAWEKLLRQSLLLGKIDPNRVYVFGISEGGYGSQRLASFYADYWAAAGPMAGGEPLKNAPAENCSNIAFSLRTGDKDTGFYRNTLTGYVREAFDSLAHQHPGYFTHKIELIPGMGHSIDYRPTTPWLKQYVRNPYPKYVSWENFEMDGLYRKGFYNLYVKERSDEEGKSRTYYEMSISGNHISLKVDDVVYEATEKDQRWGIEMKFAKKYAQAHKGKVVIYLCDELVDLTEKVTLTVNGKKVFEGKVKADLKNMVNSCAVFFDPQRLYPAAIEVELK”, the “soluble on expression in E. coli” value was “not soluble”. “IPLFSDAEIKPNHATRTTQVGMPLAISVDDYSQLAFVLTQSGEIQYLSMDAPDKPAIYTQQLATNPVSFSQSAPGLGWYGLVDDQGLAHIFKPEFNATLRENTRPPEVVALSTDMNLTLTDAQDPVTQFVFSASTQTPTIVWQTRSGKVKARWQEKSALGVAPTTIDFSFSAGFDAPQQMLLTPDGETLYLRDGSELIVLTKAAQKFTVREVIDLTQGDKKHSVRTIDLLAGAYSLLVTHNDGRVSQWFDTLQNDKRTLTHIRDFKLASELKYLLPDSHRKGFYSFYTNGTLQSHYTTSEKLVLFKRAYKQAPAMAAMSNNERYLITWNDDSLKVAEVDNSYPEVSLSSLWQKVWYEGYPEPEFVWQSTSASDNFEAKFSLVPIAFGTIKAA”: the “soluble on expression in E. coli” value was “not soluble”. Under “MSIFPTRDSRDLSSRRRSLIDWEFPQMALVPLDQVFDWAERSRQSLHDDIVNMHRNLFSLEPFTAMDNAFESVMKEMSAIQPREFHPELEYTQPGELDFLKDAYEVGKDGRLHFKVYFNVKNFKAEEITIKADKNKLVVRAQKSVACGDAAMSESVGRSIPLPPSVDRNHIQATITTDDVLVIEAPVNEPNYKAIKLSPEKGLAIQPSEVQERQLAVKNKEGLEIVTAEDGSKKIHLELKVDPHFAPKDVKVWAKGNKVYVHGVTGKEEKTENASHSEHREFYKAFVTPEVVDASKTQAEIVDGLMVVEAPLFK” stands “soluble”; under “SDRLIDKMAGEERQKIELWAQATKIVASDDEAVLAKDLVLQIIQSNNSIPVILCDPKDSIISYNNIDIPAGKPALPYLQKKLRYFKEGYPPIRIEIEARRPQFLYYSDSQTLRR”, “not soluble”; under “MSTNIFLHLPTTISTERTILRKTSFADATTLFDIWSDNDVAQFMNIEKFSTILQAEEMIQAIENEPNACRYTIFTMDNSLKAIGSLGINDINKNNQTIEIGYELAKSHWRQGLMFEILTTFLNTTKAHLPYKTITAKVLPENIASIKLLTKLGFELISTGQELDLHSGKICEISNYQLILN”, “not soluble”. “GPGSMIFGSEPPLYLKPVGRRGLRRHEADVLQHYPGYSHPVVQLRGSEGYIGDSHRLHPRLTAAEELRHERELGAERRQRVVEVRRRRHCEREANLAQRREDEFQREQRHKAQLAGLCIRNEPGDGRDTITQQYRTEDARRHYEYKHELEKHRYFARQQRLREKTHPHGYNILTGEALPSTVVPPKPSIPSDTQLFAVQNGD”: the “soluble on expression in E. coli” value was “not soluble”. Take “MGSDKIHHHHHHMSPKTDIAEVNQESLYRIFTIPEAPDSTLGKIEKHLSENLMGFLGEHIVAREKPLQEIERDFDKSQIPEEPAFVSDHTEFLLDKLVAHSVHTASPRFIGHMTSALPYFLLPLAKLMVGLNQNLVKIETSKAFTPLERNVIGMMHHLVYQQDAPFYNRWMHSAQHSLGAFCSGGTIANMTALWVARNRLLQADGDFAGISADGLAAGLQHYGYSKLTVVVSERGHYSLSKAADVLGIGRRNLVSVATDSDNRIRIDELRKTCEKIAKEGGKVLALVGVAGTTETGHIDPLDEMATVAEEVDAHFHVDAAWGGATLLSEQHRPLLAGIERADSVTIDAHKQMYVPMGAGLVLFKNPALVKSIEYHAEYIIRQGSKDLGSHTMEGSRAGMAMMVFSAMHVIGRRGYELLINNSIDKARYFSKLISEQDDFEVITEPELCILTYRFVPIKVKTVLDKATPEQLARLTPHLNALTRYIQKRQRETGQSFVSRTKLTPAQYHHEPTVVFRVVLANPLTTNEMLQEVLCEQRKIAAKATSLRGALHTEMRELGMLI”: the “soluble on expression in E. coli” value was “not soluble”.

Take “MAVVFKKTEGLQDTQTHYCPGCTHGIIHRLVGEVLEELGVLGDAVGVVPVGCSVLGYKYFNCDTQEAAHGRAPAAATGIKRVHPENTVFTYQGDGDLASIGTAEIVHAAARGEKITTIFVNNTTYGMTGGQMAPTTLVGQRATTAQSGRNAETQGYPIRVSEMLATLTGAVFVERVAVDTPAHVRQAKKAIKKAFQVQQAGLGFGIVEVLSTCPTNWGLAPNDALQWLRDNMIPYYPLGNFKNVEVEEVK”: the “soluble on expression in E. coli” value is listed as “not soluble”. For “MGSDKIHHHHHHMDKKSSVSPLPTKALSDDKNSPITVWHIGGEDIRLRIPLLLKLREKGFNVGAVGSEDGNAFADNQIPYFRYTLERGINPWADIYTRSQLSALFRQHQPDIVHSFDTKPAMIAPIVAMKTGIPGRVRTITGMGYVFSSTSTLALALRPIYRHLQRQAAIATGITIFQNPDDREYFCKHKMVLDGRDDLVLGSGIDVEGLMKNSAEPEKLAATRRELGLEGQLVVTMISRLVISKGVREYLQVASIVCQQMKNVTFLLIGSVSSEGGQAIPIQEIHQQAGVVRYLGPRNDIPTLLNLSDVFVLPSYYREGVPRVLLEAATMELPLITTDMPGCKEVVKDGWNGLLVPPRDTKALATAILKLLNSPEQRNLMGKRSRVHVQTNFSLNQVADAYADIYNRVLKLPKTLK”, the “soluble on expression in E. coli” value was “not soluble”. As for “MVHWADYIADKIIRERGEKEKYVVESGITPSGYVHVGNFRELFTAYIVGHALRDKGYEVRHIHMWDDYDRFRKVPRNVPQEWKDYLGMPISEVPDPWGCHESYAEHFMRKFEEEVEKLGIEVDLLYASELYKRGEYSEEIRLAFEKRDKIMEILNKYREIAKQPPLPENWWPAMVYCPEHRREAEIIEWDGGWKVKYKCPEGHEGWVDIRSGNVKLRWRVDWPMRWSHFGVDFEPAGKDHLVAGSSYDTGKEIIKEVYGKEAPLSLMYEFVGIKGQKGKMSGSKGNVILLSDLYEVLEPGLVRFIYARHRPNKEIKIDLGLGILNLYDEFEKVERIYFGVEGGKGDDEELRRTYELSMPKKPERLVAQAPFRFLAVLVQLPHLTEEDIINVLIKQGHIPRDLSKEDVERVKLRINLARNWVKKYAPEDVKFSILEKPPEVEVSEDVREAMNEVAEWLENHEEFSVEEFNNILFEVAKRRGISSREWFSTLYRLFIGKERGPRLASFLASLDRSFVIKRLRLEG”, the entry is “soluble”; as for “MNANIMLNEDITPIGSDYDTVRGVIELLTLDYREQPSLEAIAARLGQSPTQLQKTFTRWAGLSPKAFLQAVTLDHAKRLLREEDLPLLETSIEVGMSGPGRLHDLFVTHEAMSPGEWKAKGGGLTIRYGFHASPFGLALVMITDRGLAGCAFADPGDERACFEDMAGRWPNADYVEDREATAPYAARIFEPAMWTADKPLRVVLLGTDFQVRVWKSLLKIPMGRAVTYSNIACDIGQPTASRAVGAAVGANPVSFVVPCHRAVGKSGALTGYHWGLTRKRAMLGWETGKALEHHHHHH”, “not soluble”; as for “MGSDKIHHHHHHMANISTFEVGYCLHPGCMALRGAGWKVCRFPARVWMLESHGKRWLWDTGYAQHFTDATRSGLFQLYRRMTPVHFETKDALIHQLHAQGIQPADIDGLIISHFHGDHIAGLQDFPTVPFICSALGWQQTRNLRGFAALKRAFVPALIPEHFEQSLQFVENFPLTDLPAALAPFTQGYVLPGSDKEIVLVPLPGHAVGHLGAFVLTETGWVLLASDAAWSPHSYREGRGPSRLANLVMDDPKAYYQTLDQLHQLHLNGQVEIRLCHEGDL”, “not soluble”. As for “MGHHHHHHSGEVKPEVKPETHINLKVSDGSSEIFFKIKKTTPLRRLMEAFAKRQGKEMDSLRFLYDGIRIQADQTPEDLDMEDNDIIEAHREQIGGMRTYLDLLQHVLDHGVDRDDRTGTGTRSVFGYQMRFDLEEGFPVLTTKKLHLRSIIHELLWFLKGDTNIAYLKENGVTIWDEWADENGDLGPVYGYQWRSWPAPDGRHIDQIANLLKMLHTNPQSRRLIVSAWNPALVDEMALPPCHCLFQFYVANGRLSCQLYQRSADIFLGVPFNIASYALLTMMIAQVTGLKPGEFIHTLGDAHIYSNHFEQARLQLTRTPKKLPVMHINPDVKDLFAFRFEDFRLDGYEADPTIKAPIAV”, the entry is “soluble”; as for “MGSDKIHHHHHHMWFRSKPGKSRAAAKGRDVQSTPKASTDVVLERVRLPVDLLQPGMKVVKLDRPWTEVPVLFQGFTLQTEAEARVLRQYCAWVVVEDEAERLAPVLDQIPHLKQRTTEPLQETRTLEQELPRAADTWSRTQQFVEKLIRDIEQNNDLELASARPLIRSCVDSVKTNASAMFWMARIKHRDAYTAEHCLRVAILTVAFARFLGLPEDDLEVAGMCGLLHDIGKLRVPDEILNKPGPLSPQEYEVMRKHTTLGHELLKQDPSLDPIISDVTLHHHERIDGRGYPQQLPEWQISRFARLIAIVDAYDAMTSDRCYRDGMSPADAVRILYKNRAQQFDADMVEAFIRMIGIYPPGSLVELNTGEVALVVSTHPGRKLKPKVEILLDNNKHPVTPRVMDLGSQTTTDGPVREIKAPLPDGAFGISLEGRVKQLMAKTIANHS”, “not soluble”; as for “MAHHHHHHMEVGQRCRLLVADCTYTHATNSSDDIHGNGFTVTGVVVGVRPHAEEPWRRLYYVHCTRIEFGTELARQRRKAAAPSWSGAPLSTIGSGTIHSCNELRAAGGSFVSNGGYHYRYDGWYDAFALTPLSADVALANNTAAMASAGSSPPEPPATVSEPRDDEGAASASAVSHLPGQHRDAPEEWVAAMERDTAVCEVVYLCYAFQPWFSAPYSALQYLALPEDDVCHSVYVCHRCLSPFFTREQYYVHLAGEYCRLRTPPGRLIYHDEDAGYKAFLVDGAKNLHYGRCLSLLSKQLIESKVLSNDVDLYEYVVVTIPRASLPYMPAALPSCTSAEQCGVANLVALSREGFRQAASDFDAEDWDGDAVMGYFSRLKHHPDHTLSCIVTLPMFQRTRVATFLLDVAYWMTRQRQRLCGCGFCGRSGGAISRPFSPHGQSLLLSYWRRALLRSLAEVAPLHRRASRTAQPELRFTLAELRALMDIPIHTNDMETLLLHSEFAFYQPAAANAAAARYSDDDDSASPPTSPTSARRRQRHERGSTSTSLKDSQASSGSKLSSSSAGGSAGNGGSSTSGARYTGTLVLEAALLEAAAELHTKTPRSCVMFDKRWLVKDGRGAYAYDTPYYHH”, “not soluble”. “MLSFRNWWAREDSNPRPPGYEPGALPTELRAHTAIRLYSNKTPLSRSVISMKKDPIKEMLVKYPRILVIKAALKILKDGNKIDRERIEKTIVKIMTKKEGLEHHHHHH”: the “soluble on expression in E. coli” value was “soluble”.
